Data taken from paper PMC5934362.

Legend:
Assay in all cases: ITC; 308 K; 50 mM HEPES pH 7.5, 0.5 mM CaCl2, 0.5 mM TCEP; TrxADocScaA variant in the cell, titrated with 28 injections of 10 uL CohScaB5; single-site model
[1] = target: TrxADocScaA N669A (Ruminococcus flavefaciens FD-1)
[2] = target: TrxADocScaA V662 + V721 double mutant (Ruminococcus flavefaciens FD-1)
[3] = target: TrxADocScaA N661A (Ruminococcus flavefaciens FD-1)
[4] = target: TrxADocScaA V666A (Ruminococcus flavefaciens FD-1)
[5] = target: TrxADocScaA wild type (dockerin of primary scaffoldin ScaA fused to N-terminal thioredoxin A) (Ruminococcus flavefaciens FD-1)
TrxADocScaA wild type (dockerin of primary scaffoldin ScaA fused to N-terminal thioredoxin A) (Ruminococcus flavefaciens FD-1), sequence (main, as listed by the source): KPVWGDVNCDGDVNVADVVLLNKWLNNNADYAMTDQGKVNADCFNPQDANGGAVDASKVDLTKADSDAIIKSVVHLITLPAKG

[6] = target: TrxADocScaA V662 + V666 + V721 triple mutant (Ruminococcus flavefaciens FD-1)
[7] = target: TrxADocScaA V662A (Ruminococcus flavefaciens FD-1)
[8] = target: TrxADocScaA H722A (Ruminococcus flavefaciens FD-1)
[9] = target: TrxADocScaA K670A (Ruminococcus flavefaciens FD-1)
[10] = target: TrxADocScaA V721A (Ruminococcus flavefaciens FD-1)
[11] = target: TrxADocScaA V666 + V721 double mutant (Ruminococcus flavefaciens FD-1)
[12] = target: TrxADocScaA V662 + V666 double mutant (Ruminococcus flavefaciens FD-1)

Ka [1]: 3.16e+08 M⁻¹
dH [1]: -73.4 kcal/mol
stoichiometry N [1]: 1.01
Ka [2]: 6.24e+07 M⁻¹
dH [2]: -64.3 kcal/mol
stoichiometry N [2]: 1.08
Ka [3]: 2.64e+06 M⁻¹
dH [3]: -82.5 kcal/mol
stoichiometry N [3]: 0.98
Ka [4]: 4.07e+08 M⁻¹
dH [4]: -56.6 kcal/mol
stoichiometry N [4]: 1.02
Ka [5]: 4.02e+08 M⁻¹
dH [5]: -66.7 kcal/mol
stoichiometry N [5]: 1.01
Ka [6]: 291000 M⁻¹
dH [6]: -64.8 kcal/mol
stoichiometry N [6]: 1.04
Ka [7]: 4.78e+08 M⁻¹
dH [7]: -68.4 kcal/mol
stoichiometry N [7]: 1.02
Ka [8]: 2.73e+08 M⁻¹
dH [8]: -72.4 kcal/mol
stoichiometry N [8]: 1
Ka [9]: 3.67e+08 M⁻¹
dH [9]: -75.1 kcal/mol
stoichiometry N [9]: 1.02
Ka [10]: 5.1e+08 M⁻¹
dH [10]: -48.7 kcal/mol
stoichiometry N [10]: 0.95
Ka [11]: 2.25e+07 M⁻¹
dH [11]: -56.5 kcal/mol
stoichiometry N [11]: 1.01
Ka [12]: 1.98e+07 M⁻¹
dH [12]: -67.5 kcal/mol
stoichiometry N [12]: 0.98
Substance: RfCohScaB5 (fifth cohesin of adaptor scaffoldin ScaB), expressed alone with a C-terminal hexa-histidine tag (domain or fragment)
